Assay results published in paper doi:10.1101/2023.06.16.545277, “VAMP2 regulates phase separation of alpha-synuclein” (bioRxiv, 2023).

Molecular target: wild-type human full-length alpha-synuclein (human, UniProt P37840 1-140)
Assay: NMR titration; 1H-15N-BEST-TROSY chemical shift perturbation; 40 μM 15N-labelled aSYN fixed, peptide titrated; 20 mM phosphate buffer, pH 7.0, 10% 2H2O, 298 K
Settings: both partners purified

B1: JMD long peptide (peptide)
peptide: KLKRKYWWKNLKMM
notes: VAMP2, full length of the juxtamembrane (JM) domain, aa 83-96; also called native JMD long peptide; JM-domain of VAMP2, aa 83-96; source: synthetic peptide (custom synthesis, Proteogenix)
B1: binds.
